Data from patent US20190194714A1, “REAGENT FOR GLUCOSE SENSOR, GLUCOSE SENSOR, METHOD FOR MANUFACTURING GLUCOSE SENSOR, AND GLUCOSE MEASURING DEVICE” (NATIONAL INSTITUTE OF ADVANCED INDUSTRIAL SCIENCE AND …, priority 2016, published 2019).

Legend:
[1] = system: Aspergillus terreus var. aureus FAD-GDH (flavin adenine dinucleotide glucose dehydrogenase), enzyme No. 1, host Pichia pastoris; assay: Michaelis constant of FAD-GDH enzyme No. 1; type: biochemical; settings: 110 kDa
[2] = substrate: OC[C@H]1OC(O)[C@H](O)[C@@H](O)[C@@H]1O; assay: Michaelis constant of FAD-GDH enzyme No. 2; type: biochemical, Thermoascus crustaceus; settings: other: enzyme No. 2, host Escherichia coli, 60 kDa
[3] = substrate: OC[C@H]1OC(O)[C@H](O)[C@@H](O)[C@@H]1O; assay: Michaelis constant of FAD-GDH enzyme No. 4; type: biochemical, Thermoascus crustaceus; settings: other: enzyme No. 4, host Saccharomyces cerevisiae, 90 kDa
[4] = substrate: OC[C@H]1OC(O)[C@H](O)[C@@H](O)[C@@H]1O; assay: Michaelis constant of FAD-GDH enzyme No. 3; type: biochemical, Thermoascus crustaceus; settings: other: enzyme No. 3, host Pichia pastoris, 90 kDa

Molecule `OC[C@H]1OC(O)[C@H](O)[C@@H](O)[C@@H]1O` (stereo partly shown) [glucose] has a Km [1] of 82 mM.

B1: Thermoascus crustaceus FAD-GDH (flavin adenine dinucleotide glucose dehydrogenase), enzyme No. 2, host Escherichia coli (Thermoascus crustaceus) (protein)
chain: TSYDYIIVGGGTSGLVVANRLSEDSSVSVLVVEAGDSVYNNPNVTGTGAYGAAFGTSIDWAYQTIKQPYAGDLTQTIRAGKALGGTSTINGMAYTRAEDVQIDAWEAIGNQGWNWSTLFPYYLKSERFQIPINAQSAAGANWNPAYHGMNGPLTTGWTYEMMNGSMAEVLNATYQNLGISYLPDVNGGKMHGYTLFPRTVNRALDVREDAARAYYYPFESSRPNLSVMLNTYGNRIVWANATNTNSVTATGVEVTLSDGTVQTIQANKEVILSAGSLISPAILERSGVGNPTVLSRFGIPLVVNLTTVGENLQDQMNTEFIYLSNATFSGQSTFLGHPTAADLFGSNVTNVAKSVQSSLPHYAATVSEASNGTMSAAVLQKLFQLQYNIIFNNPTPIAEILVAPSGSKFITEYWALLPFARGNVHIGSANPLDRPVINPNYMMFEWDMQEQIASGKFVRKLYGTAPFTNWATGEATPGYSTLPANATDGQWAQWISSVSRSNFHPVGTAAMMPRDMGGVVDSNLVVYGTNNVRVIDASVLPLQVCGHLVSTLYAVAERASDLIKAGQV
For B1, the Km [2] was 4.6 mM.

B2: Thermoascus crustaceus FAD-GDH (flavin adenine dinucleotide glucose dehydrogenase), enzyme No. 4, host Saccharomyces cerevisiae (Thermoascus crustaceus) (protein)
chain: TSYDYIIVGGGTSGLVVANRLSEDSSVSVLVVEAGDSVYNNPNVTGTGAYGAAFGTSIDWAYQTIKQPYAGDLTQTIRAGKALGGTSTINGMAYTRAEDVQIDAWEAIGNQGWNWSTLFPYYLKSERFQIPINAQSAAGANWNPAYHGMNGPLTTGWTYEMMNGSMAEVLNATYQNLGISYLPDVNGGKMHGYTLFPRTVNRALDVREDAARAYYYPFESSRPNLSVMLNTYGNRIVWANATNTNSVTATGVEVTLSDGTVQTIQANKEVILSAGSLISPAILERSGVGNPTVLSRFGIPLVVNLTTVGENLQDQMNTEFIYLSNATFSGQSTFLGHPTAADLFGSNVTNVAKSVQSSLPHYAATVSEASNGTMSAAVLQKLFQLQYNIIFNNPTPIAEILVAPSGSKFITEYWALLPFARGNVHIGSANPLDRPVINPNYMMFEWDMQEQIASGKFVRKLYGTAPFTNWATGEATPGYSTLPANATDGQWAQWISSVSRSNFHPVGTAAMMPRDMGGVVDSNLVVYGTNNVRVIDASVLPLQVCGHLVSTLYAVAERASDLIKAGQV
Molecule B2 has a Km [3] of 3.2 mM.

B3: Thermoascus crustaceus FAD-GDH (flavin adenine dinucleotide glucose dehydrogenase), enzyme No. 3, host Pichia pastoris (Thermoascus crustaceus) (protein)
chain: TSYDYIIVGGGTSGLVVANRLSEDSSVSVLVVEAGDSVYNNPNVTGTGAYGAAFGTSIDWAYQTIKQPYAGDLTQTIRAGKALGGTSTINGMAYTRAEDVQIDAWEAIGNQGWNWSTLFPYYLKSERFQIPINAQSAAGANWNPAYHGMNGPLTTGWTYEMMNGSMAEVLNATYQNLGISYLPDVNGGKMHGYTLFPRTVNRALDVREDAARAYYYPFESSRPNLSVMLNTYGNRIVWANATNTNSVTATGVEVTLSDGTVQTIQANKEVILSAGSLISPAILERSGVGNPTVLSRFGIPLVVNLTTVGENLQDQMNTEFIYLSNATFSGQSTFLGHPTAADLFGSNVTNVAKSVQSSLPHYAATVSEASNGTMSAAVLQKLFQLQYNIIFNNPTPIAEILVAPSGSKFITEYWALLPFARGNVHIGSANPLDRPVINPNYMMFEWDMQEQIASGKFVRKLYGTAPFTNWATGEATPGYSTLPANATDGQWAQWISSVSRSNFHPVGTAAMMPRDMGGVVDSNLVVYGTNNVRVIDASVLPLQVCGHLVSTLYAVAERASDLIKAGQV
For B3, the Km [4] was 2.8 mM.
